# Data from PMC9719539, “Single-molecule characterization of subtype-specific β1 integrin mechanics” (Nature Communications, 2022).
# B1: vitronectin: physiologic macromolecular ligand with RGD motif (protein, UniProt P04004 20-478, looked up)
# Vitronectin: DQESCKGRCTEGFNVDKKCQCDELCSYYQSCCTDYTAECKPQVTRGDVFTMPEDEYTVYDDGEEKNNATVHEQVGGPSLTSDLQAQSKGNPEQTPVLKPEEEAPAPEVGASKPEGIDSRPETLHPGRPQPPAEEELCSGKPFDAFTDLKNGSLFAFRGQYCYELDEKAVRPGYPKLIRDVWGIEGPIDAAFTRINCQGKTYLFKGSQYWRFEDGVLDPDYPRNISDGFDGIPDNVDAALALPAHSYSGRERVYFFKGKQYWEYQFQHQPSQEECEGSSLSAVFEHFAMMQRDSWEDIFELLFWGRTSAGTRQPQFISRDWHGVPGQVDAAMAGRIYISGMAPRPSLAKKQRFRHRNRKGYRSQRGHSRGRNQNSRRPSRATWLSLFSSEESNLGANNYDDYRMDWLVPATCEPIQSVFFFSGDKYYRVNLRTRRVDTVDPPYPRSIAQYWLGCPAPGHL
# System: BJ-5ta cells
# Experiment: Percentage of spread cells / cell spreading on TGT surfaces
# Assay type: cell-based, human
# Conditions: 1 h after seeding
# Experimental: Glass coverslips were densely PEGylated to minimize non-specific interactions such as the binding of cell-secreted extracellular matrix proteins. Coverslips cleaned by piranha etching solution (a 3:1 mixture of sulfuric acid and hydrogen peroxide) were incubated in silanization solution (UCT, 1760-24-3; 2% aminosilane and 5% acetic acid in methanol) for 30 min and reacted with a mixture of Polyethylene glycol (PEG) with and without biotin (1:19, 150 mg/ml; Laysan Bio, Biotin-PEG-SVA-5000 and MPEG-SVA-5000) for 4 h. Surfaces were washed thoroughly and dried using nitrogen gas after each step. A 3D-printed dish (PLA) or a silicon gasket (Grace Bio Labs, 103280) was attached to the coverslip to form a dish. Neutravidin (Thermo Fisher scientific, 31000; 0.4 mg/ml) was added to the dish for 10 min and washed out thoroughly. […]
# The cells were gently harvested by washing in PBS for 1 min, incubating with 0.05% trypsin for 3 min, and then neutralizing with cell culture medium (FBS 10%). […] A Nikon Eclipse Ti microscope equipped with Xenon arc lamp, Nikon perfect focus system, custom total internal reflection fluorescence microscopy (TIRFM) module, and custom reflection interference contrast microscopy (RICM) module was driven by Elements software. […] Images were recorded using an electron-multiplying charge-coupled device (EMCCD; Andor iXon 888). […]
molecule,measurement,value
B1,cell morphology (in words),elongated with irregular lamellipodia
